For 1 substance, EC50 results are on record in patent publication US20140199709A1.

This test concerns the target human mast cell β-tryptase (human) (UniProt Q15661). The experiment in a line: sandwich ELISA, luminescence (CSPD): rabbit anti-human tryptase coated as capture, human tryptase titrated, AP-labeled G3 as detection; EC50 is of the tryptase concentration. On the technique in general: An ELISA detects its analyte on a solid surface through an enzyme-linked reagent.

The term EC50 denotes the concentration at which the effect is half-maximal.

Sequence of UniProt Q15661 (Q15661 31-275 limits assumed): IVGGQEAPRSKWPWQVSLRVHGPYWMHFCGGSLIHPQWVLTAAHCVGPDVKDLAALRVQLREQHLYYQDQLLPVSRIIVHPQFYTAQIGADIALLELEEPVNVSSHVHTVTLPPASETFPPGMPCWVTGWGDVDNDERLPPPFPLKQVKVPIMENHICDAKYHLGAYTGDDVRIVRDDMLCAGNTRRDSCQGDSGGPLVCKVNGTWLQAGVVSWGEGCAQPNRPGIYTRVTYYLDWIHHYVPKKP

“anti-tryptase antibody G3 (sc-33676; Santa Cruz Biotechnology, Inc.), alkaline phosphatase conjugated” returned an EC50 of 0.065 µg/mL.
